These results are taken from US20180353627A1, “RADIOLABELED DISINTEGRINS AS BRACHYTHERAPY AGENTS” (UNIVERSITY OF SOUTHERN CALIFORNIA, priority 2015, published 2018).

Series [1] in a line: Hemorrhage after brain injection in healthy, tumor-free rats. Format: in vivo. The note with it: no difference to PBS-injected brains. The source says:
(§1) All previous work was done with CN, the precursor of VCN. Applicants previously determined whether CN induces hemorrhage in healthy, tumor-free rats.

Series [2] is described as follows: Immune response after intracranial injection. Format: in vivo, rodents.
Excerpt: as §1

A further series concerns C6 rat GBM cells. The series can be described thus: Gamma camera biodistribution after intracranial injection, C6 rat GBM. Format: in vivo, rats. The note with it: given intracranially as ^131I-CN. The procedure: A Gamma camera was used to determine biodistribution of ^131I-CN in rats after intracranial injection of C6 rat GBM cells, and tumors allowed to grow for 7 days. Two tumor-free rats were also administered ^131I-CN intracranially. Whole-body distribution of radioactivity was imaged at 0 and 24 hours after injection of ^131I-CN.
CN is localized to the brain in all animals at 0 hours. […] This retention was attributable to CN's specific binding to integrin αvβ3, which has been shown previously by us and others to be overexpressed in glioma cells, but not in normal brain tissue. Thus, CN delivered intratumorally binds to the expected integrins in GBM in vivo and accumulates specifically at the site of the tumor. Based on structural and functional similarities between VCN and CN, we anticipate identical findings with VCN for GBM localization.

The subject of a further series is GBM. Description: Survival study, intratumoral delivery via Alzet pump in GBM-bearing animals. Format: in vivo.
A further series deals with α5β1 (Homo sapiens, UniProt P05556+P08648). The series can be described thus: Fluorescence polarization binding of FITC-labeled disintegrins to soluble integrin α5β1. The note with it: VCN with incorporated echistatin sequence. The source says: FIG. 3 depicts amino acid sequences of this disclosure. Mass spectrometry and crystallographic data confirmed that CN (SEQ ID. NO. 1) is a homodimer with the 2 chains oriented in an antiparallel fashion and held together by 2 inter-chain disulfide bonds. […] Recombinant CN is SEQ ID NO. 2. VCN is SEQ ID NO. 3. Echistatin is SEQ ID NO. 4.
Further, ^131I-VCN retained essentially 100% radioiodine during dialysis against phosphate buffered saline, pH 7.4, for 15 days. […] Binding kinetics were calculated from the fluorescence anisotropy data generated by steady state binding of FITC-labeled disintegrins to either purified (αvβ3, αvβ5) or recombinant (α5β1) functional human integrins. The dissociation constants for interactions of either CN or VCN with soluble integrins were determined by Scatchard analysis using a non-linear curve fit.
(In general: In fluorescence polarisation assays a small probe gives low polarisation when free and higher when bound to something large.)

Another series relates to platelet aggregation. Description: Inhibition of platelet aggregation (bioactivity after radioiodination). Conditions: radioiodinated VCN. It counts as cell-based.
The nature of series [3]: Toxicology study, single i.v. escalating doses in rats. It counts as in vivo. The note with it: single i.v. 3 mg/kg to 75 mg/kg, 14 days. The procedure:
Rats were evaluated for signs of physical toxicity or stress and sacrificed after 14 days.

For a further series, the system named is U87 GBM cells. The series can be described thus: Intracranial U87 GBM tumor model, Alzet pump delivery to the brain. It counts as in vivo. Conditions: 40 μg daily over 2 weeks via Alzet pump, U87 GBM in nude mice. The source says: Finally, in an intracranial tumor model, U87 GBM cells were stereotactically implanted into nude mice. […] After 2 weeks the mice were euthanized and their brains removed. The average tumor size of animals treated with PBS was several times larger than animals treated with VCN.

“Also recorded” adds a separate entry of the source.

Sequence of α5β1 (P08648 42-894 limits assumed): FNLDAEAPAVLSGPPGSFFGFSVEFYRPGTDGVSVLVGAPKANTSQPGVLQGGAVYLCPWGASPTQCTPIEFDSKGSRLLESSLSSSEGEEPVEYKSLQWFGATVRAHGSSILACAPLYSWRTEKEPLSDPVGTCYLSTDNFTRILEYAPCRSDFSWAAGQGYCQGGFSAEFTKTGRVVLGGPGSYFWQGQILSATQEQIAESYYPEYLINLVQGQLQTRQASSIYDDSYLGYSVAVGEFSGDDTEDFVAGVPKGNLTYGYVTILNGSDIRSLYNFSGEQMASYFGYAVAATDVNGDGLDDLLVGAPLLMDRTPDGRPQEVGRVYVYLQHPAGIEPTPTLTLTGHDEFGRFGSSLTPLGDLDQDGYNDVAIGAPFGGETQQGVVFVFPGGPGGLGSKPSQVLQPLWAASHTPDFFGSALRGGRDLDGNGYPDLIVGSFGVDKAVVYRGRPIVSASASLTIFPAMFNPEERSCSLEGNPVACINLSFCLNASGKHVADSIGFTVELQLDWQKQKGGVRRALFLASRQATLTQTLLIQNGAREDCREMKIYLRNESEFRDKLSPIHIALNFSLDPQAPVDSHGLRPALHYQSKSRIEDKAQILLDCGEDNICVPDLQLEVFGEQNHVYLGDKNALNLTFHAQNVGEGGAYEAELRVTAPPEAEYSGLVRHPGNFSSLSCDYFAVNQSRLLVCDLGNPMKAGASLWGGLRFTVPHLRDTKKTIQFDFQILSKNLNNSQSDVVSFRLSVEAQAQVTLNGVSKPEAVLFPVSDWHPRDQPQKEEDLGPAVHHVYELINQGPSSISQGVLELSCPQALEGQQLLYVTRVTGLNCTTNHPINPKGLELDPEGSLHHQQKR
Sequence of α5β1 (P08648 895-995 partner limits assumed): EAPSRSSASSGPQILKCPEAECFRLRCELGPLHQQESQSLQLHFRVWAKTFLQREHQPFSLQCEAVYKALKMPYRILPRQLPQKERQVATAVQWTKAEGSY
Sequence of α5β1 (P05556 21-728 limits assumed): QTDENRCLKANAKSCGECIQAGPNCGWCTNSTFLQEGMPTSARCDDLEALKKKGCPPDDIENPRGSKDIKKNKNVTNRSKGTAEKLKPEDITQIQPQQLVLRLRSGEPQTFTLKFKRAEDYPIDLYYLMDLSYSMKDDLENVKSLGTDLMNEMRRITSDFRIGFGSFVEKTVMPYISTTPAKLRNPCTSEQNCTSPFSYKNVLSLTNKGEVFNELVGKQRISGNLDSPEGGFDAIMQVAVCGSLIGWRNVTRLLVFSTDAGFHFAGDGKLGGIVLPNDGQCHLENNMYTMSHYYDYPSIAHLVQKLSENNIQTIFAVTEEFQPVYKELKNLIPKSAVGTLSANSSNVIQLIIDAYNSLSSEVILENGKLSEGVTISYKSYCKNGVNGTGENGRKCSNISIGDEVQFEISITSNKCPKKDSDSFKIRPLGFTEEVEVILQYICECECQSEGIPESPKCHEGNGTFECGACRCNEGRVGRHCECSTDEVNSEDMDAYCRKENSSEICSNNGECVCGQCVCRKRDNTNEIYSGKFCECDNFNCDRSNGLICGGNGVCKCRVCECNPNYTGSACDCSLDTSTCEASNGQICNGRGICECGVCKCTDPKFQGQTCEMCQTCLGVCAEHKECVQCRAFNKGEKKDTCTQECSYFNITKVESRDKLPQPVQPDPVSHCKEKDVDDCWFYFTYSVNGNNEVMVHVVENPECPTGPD

Consider contortrostatin [CN], for which the hemorrhage entry in series [1] is “minimal and localized to the injection needle track”. For the same substance, the immune response result in series [2] (intracranial 50 μg, tumor-bearing (U87 GBM) or tumor-free rodents, 7 days) is “no evidence of an immune response”; in series [2] (intracranial 150 μg, after 7, 14 or 21 days), “no evidence of an immune response”. The “radioactivity in the brain at 24 hours” value is reported as “the vast majority of radioactivity was still retained” in the series with C6 rat GBM cells (tumor-bearing (C6) rats) and “disappeared from the brains of tumor-free rats” in the series on C6 rat GBM cells (tumor-free rats). Besides, in the series with GBM, the survival result is listed as “significantly (p<0.008) improved survival”.
Turning to vicrostatin [VCN], the “improvement of binding affinity to integrin a5b1” value at α5β1 was “approximately 13 fold”. Besides, the “retention of bioactivity after radioiodination, assessed by inhibition of platelet aggregation” value in the series on platelet aggregation is given as “full retention of bioactivity; also recorded: full retention of biological activity”. Besides, in series [3], the adverse effects entry is reported as “no adverse effects observed”; the “behavior, gross and microscopic examination” value was “no changes in behavior, or in gross or microscopic examination”; the body weight gain entry was “gained weight indistinguishable from control”; the hematological parameters entry is listed as “no significant differences in hematological parameters”. Besides, the “tumor growth (tumor size versus PBS)” value with U87 GBM cells was “significant (p<0.001) attenuation of tumor growth”.
